Assay [1] deals with T1, Human CCR8 (C-C chemokine receptor type 8) (human, UniProt P51685 1-355). As to the kind of experiment: cell-based or functional assay.
Another assay addresses T2, mCCR8 (UniProt P56484 1-353, limits assumed).
T2 construct: whole, on cells; also called 293T-mCCR8
T2 sequence (looked up): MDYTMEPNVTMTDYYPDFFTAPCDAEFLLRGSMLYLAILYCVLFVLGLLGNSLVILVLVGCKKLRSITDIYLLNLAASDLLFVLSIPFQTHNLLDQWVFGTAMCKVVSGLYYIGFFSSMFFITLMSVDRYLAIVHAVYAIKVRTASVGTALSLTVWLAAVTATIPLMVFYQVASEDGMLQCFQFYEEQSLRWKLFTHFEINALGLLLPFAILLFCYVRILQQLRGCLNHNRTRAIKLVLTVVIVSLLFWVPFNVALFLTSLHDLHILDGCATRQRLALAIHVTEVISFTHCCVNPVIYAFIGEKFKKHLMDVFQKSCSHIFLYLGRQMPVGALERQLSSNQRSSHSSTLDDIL
As to the kind of experiment: flow cytometry, 293T cells with mCCR8. The procedure:
(§1) Binding specificity of the anti-CCR8 antibodies (mAbs) was tested by FACS using several cell lines. […] The binding titration of the anti-CCR8 antibodies to CCR8 transfectants was performed by serial dilution of antibodies. The diluted antibody (50 μl) in flow cytometry buffer (PBS, 0.5% BSA, 1 mM EDTA) was incubated with cells (50 μl) at a concentration of 2 million cells/ml on ice for 30 min. After two washes with flow cytometry buffer, bound antibody was detected with Alexa647-labeled F(ab′)2 fragment goat anti-human IgG (Jackson ImmunoResearch #709-606-149) (1:500 dilution) for 20 minutes on ice. The fluorescence was measured on a Cytek Aurora cytometer, after two washes with flow cytometry buffer. The data were analyzed with GraphPad Prism 8.0 software to determine EC50 values.
A general note: In flow cytometry, cells or beads pass a laser one at a time.

Assay [2] concerns the target T1, Human CCR8 (C-C chemokine receptor type …). The assay can be described thus: cell-based or functional assay. The source holds these as a separate data set.
Assay [3] has the same target. As to the kind of experiment: cell-based or functional assay. This is another data set of the same source.
The target is the same in assay [4]. The assay can be described thus: flow cytometry, 293T cells overexpressing human CCR8. The procedure:
as §1

The target in assay [5] is T3, cynomolgus macaque CCR8 (cynomolgus macaque, UniProt G7NYJ2 1-355). As to the kind of experiment: cell-based or functional assay.
T3 sequence (G7NYJ2 entry or part of it): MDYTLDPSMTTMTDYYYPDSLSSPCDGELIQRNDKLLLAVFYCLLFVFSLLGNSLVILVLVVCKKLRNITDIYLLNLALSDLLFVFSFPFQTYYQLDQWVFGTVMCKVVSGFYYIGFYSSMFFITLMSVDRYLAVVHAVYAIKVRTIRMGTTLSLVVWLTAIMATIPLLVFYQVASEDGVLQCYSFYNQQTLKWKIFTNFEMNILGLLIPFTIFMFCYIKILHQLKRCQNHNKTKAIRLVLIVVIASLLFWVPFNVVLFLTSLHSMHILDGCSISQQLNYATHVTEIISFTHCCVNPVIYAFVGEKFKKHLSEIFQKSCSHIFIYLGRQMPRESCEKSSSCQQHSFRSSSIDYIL
Assay [6] addresses T3, cynomolgus macaque CCR8. As to the kind of experiment: flow cytometry, 293T cells overexpressing cynomolgus CCR8. As to the method: as §1
Assay [7] addresses T1, Human CCR8 (C-C chemokine receptor type …). As to the kind of experiment: flow cytometry, Hut78 cells (endogenous human CCR8). The procedure: as §1
The target is the same in assay [8]. Described as above. As to the method: as §1
This is another data set of the same source.

Assay [9] concerns the target T3, cynomolgus macaque CCR8. As to the kind of experiment: flow cytometry, 293T cells overexpressing cynomolgus CCR8. As to the method:
as §1
The source holds these as a separate data set.

Assay [10] deals with T1, Human CCR8 (C-C chemokine receptor type …). As to the kind of experiment: flow cytometry, 293T cells overexpressing human CCR8. The procedure:
as §1
The source holds these as a separate data set.

Where two headings read alike, the source gives them in different places.

T1 sequence (P51685 whole entry): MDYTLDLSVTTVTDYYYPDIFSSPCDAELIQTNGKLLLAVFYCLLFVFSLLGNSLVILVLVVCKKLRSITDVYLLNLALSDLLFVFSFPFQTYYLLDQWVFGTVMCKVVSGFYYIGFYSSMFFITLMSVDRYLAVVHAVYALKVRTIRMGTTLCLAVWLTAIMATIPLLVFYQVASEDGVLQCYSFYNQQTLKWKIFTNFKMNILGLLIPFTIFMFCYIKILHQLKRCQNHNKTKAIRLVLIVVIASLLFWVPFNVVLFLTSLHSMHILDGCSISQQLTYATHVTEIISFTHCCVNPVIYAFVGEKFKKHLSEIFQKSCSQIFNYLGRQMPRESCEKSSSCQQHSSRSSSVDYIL

B1: ChH2-AF (antibody, human IgG1, kappa)
heavy: not shown
light: DIVMTQAAPSVPVTPGESVSISCRSSQSLLHSNGNTYLYWFLQRPGQSPQLLIYRMSNLASGVPDRFSGSGSGTAFTLRISRVEAEDVGVYYCMQHLEYPFTFGIGTKLELKRTVAAPSVFIFPPSDEQLKSGTASVVCLLNNFYPREAKVQWKVDNALQSGNSQESVTEQDSKDSTYSLSSTLTLSKADYEKHKVYACEVTHQGLSSPVTKSFNRGEC
In the case of B1, in assay [1], the “ADCC killing of TALL-1 cells, Median EC50 (pM)” value was 2.55 pM.

B2: ChB1-AF (antibody, human IgG1, kappa)
heavy: not shown
light: DIVMTQAAPSVVVTPGESVSISCRSSKSLLHSNGNTYLYWFLQRPGQSPQLLIYRMSNLASGVPDRFSGSGSGTAFTLRISRVEAEDVGVYYCMQHVEYPFTFGGGTKVQIKRTVAAPSVFIFPPSDEQLKSGTASVVCLLNNFYPREAKVQWKVDNALQSGNSQESVTEQDSKDSTYSLSSTLTLSKADYEKHKVYACEVTHQGLSSPVTKSFNRGEC
Consider B2, for which, in [1], the “ADCC killing of TALL-1 cells, Median EC50 (pM)” value is 9.8 pM.

B3: ABC822 (antibody, human IgG1, kappa, V domains shown)
VH: EVQLVESGGGLMQPGRSLKLSCAASGFSFSDYYMAWVRQAPKKGLEWVASISNAGTKTYYGDSVKGRFTISRDDAKSTLYLQMNSLRSEDTATYYCVRQDLYYGRNQYWYFDFWGPGTMVTVSS
VL: IVMTQSPTSMSKSVGDRVTMNCKASQSVGSNVDWYQQKTGQSPKLLIYKTSSRFTGVPDRFTGSGSRTDFTFTISSMQAEDLALYYCVQSNSYPYTFGAGTKLELKR
What is called EC50 is the concentration that produces a half-maximal response. The low end stands for an effect from little substance, the high end for a need for much substance. B3: the binding result with mCCR8 was “no binding”. Further, in assay [2], the “ADCC killing of Jurkat-hCCR8 cells, IC50 (pM)” value worked out at 9.68 pM. Also, in [3], the “ADCC killing of Hut78 cells, IC50 (pM)” value amounted to 6.31 pM. Also, the EC50 in assay [4] was 68.4 pM; with cynomolgus macaque CCR8 [6], 464 pM; in assay [7], 2920 pM; in assay [8] it was 3160 pM; with cynomolgus macaque CCR8 [9], 93.8 pM; in [10], 269 pM. In addition, the “ADCC killing of Jurkat-cynoCCR8 cells, IC50 (pM)” value with cynomolgus macaque CCR8 [5] was found to be 7.19 pM.

B4: ABC1183 (antibody, human IgG1, kappa, V domains shown)
VH: EVQLLESGGGLVQPGGSLRLSCAASGFSFSDYYMAWVRQAPGKGLEWVASISNAGTKTYYGDSVKGRFTISRDDSKNTLYLQMNSLRAEDTAVYYCVRQDLYYGRNQYWYFDFWGRGTLVTVSS
VL: DIQMTQSPSSLSASVGDRVTITCKASQSVGSNVDWYQQKPGKSPKLLIYKTSSRFTGVPSRFSGSGSRTDFTLTISSLQPEDFATYYCVQSNSYPYTFGAGTKLELKR
notes: Humanized format of ABC822
As to B4, the binding result in the assay with mCCR8 is “no binding”. Besides, in assay [2], the “ADCC killing of Jurkat-hCCR8 cells, IC50 (pM)” value was determined as 1.8 pM. In addition, the “ADCC killing of Hut78 cells, IC50 (pM)” value in [3] turned out to be 7.95 pM. For the same molecule, the “ADCC killing of Jurkat-cynoCCR8 cells, IC50 (pM)” value with cynomolgus macaque CCR8 [5] was 6.15 pM. Besides, the EC50 in the assay with cynomolgus macaque CCR8 [6] came to 445 pM; in assay [7], 4120 pM; in [10], 373 pM.

(Values after patent US20250289896A1 (ANALYTICAL BIOSCIENCES SHANGHAI, published 2025).)
